43 sequences from the supplement of paper PMC9428881 can be followed below.

± gives the standard error.

The data set in a line: background-corrected fluorescence of 3'-dye-labeled ssDNA relative to brightest sequence (3'-GCGCG) (fraction); higher = brighter dye fluorescence (less quenching). In short, it runs like this:
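Arrays of single-stranded DNA, with a 3' Cy3 or Cy5 dye beside each of 1024 permuted pentamers, were built on glass slides through light-directed phosphoramidite synthesis. They were washed for 2 h at r.t. in acetonitrile and scanned at 532 or 635 nm, once before and once after overnight ethylenediamine/ethanol deprotection. Fluorescence is reported after subtracting unlabeled-oligo background and normalizing to the brightest sequence. Averages cover 10 features per array and at least 3 syntheses.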

Take “TTTTTTCAGCAGCAGCATGCTTTTTTTTTTTTTTTGTTTA [ATTTG]”: the background-corrected fluorescence is, setting by setting: (dye: Cy3 (3' terminal)) 0.521 ± 0.027; (dye: Cy5 (3' terminal)) 0.403 ± 0.022.
For the sequence “TTTTTTCAGCAGCATCAGCATTTTTTTTTTTTTTTGTTGT”, the background-corrected fluorescence by setting is: (dye: Cy3 (3' terminal)) 0.679 ± 0.031; (dye: Cy5 (3' terminal)) 0.494 ± 0.027.
For the sequence “TTTTTTCAGCAGCATCATCATTTTTTTTTTTTTTTGTTGG [GGTTG]”, the background-corrected fluorescence stood at 0.582 ± 0.0069 (dye: Cy3 (3' terminal)) and 0.471 ± 0.028 (dye: Cy5 (3' terminal)).
The like results for “TTTTTTCAGCAGCATCATGATTTTTTTTTTTTTTTGTTGC [CGTTG]” were, in that order, 0.53 ± 0.024 and 0.389 ± 0.025.
The like results for “TTTTTTCAGCAGCATCATGCTTTTTTTTTTTTTTTGTTGA [AGTTG]” were, in that order, 0.632 ± 0.027 and 0.548 ± 0.046.
The like results for “TTTTTTCAGCAGCATGAGCATTTTTTTTTTTTTTTGTTCT [TCTTG]” were, in that order, 0.459 ± 0.012 and 0.367 ± 0.027.
Turning to “TTTTTTCAGCAGCATGATCATTTTTTTTTTTTTTTGTTCG [GCTTG]”, the background-corrected fluorescence (dye: Cy3 (3' terminal)) was determined as 0.551 ± 0.0098 and the background-corrected fluorescence (dye: Cy5 (3' terminal)) is 0.371 ± 0.032.
Consider “TTTTTTCAGCAGCATGATGATTTTTTTTTTTTTTTGTTCC [CCTTG]”, for which the background-corrected fluorescence reads like this: (dye: Cy3 (3' terminal)) 0.351 ± 0.018; (dye: Cy5 (3' terminal)) 0.275 ± 0.015.
For “TTTTTTCAGCAGCATGATGCTTTTTTTTTTTTTTTGTTCA [ACTTG]” the same measures were 0.492 ± 0.025 and 0.389 ± 0.044.
For “TTTTTTCAGCAGCATGCGCATTTTTTTTTTTTTTTGTTAT [TATTG]” the same measures were 0.546 ± 0.048 and 0.389 ± 0.017.
Turning to “TTTTTTCAGCAGCATGCTCATTTTTTTTTTTTTTTGTTAG [GATTG]”, the background-corrected fluorescence was 0.541 ± 0.019 (dye: Cy3 (3' terminal)) and 0.438 ± 0.067 (dye: Cy5 (3' terminal)).
The like results for “TTTTTTCAGCAGCATGCTGATTTTTTTTTTTTTTTGTTAC [CATTG]” were, in that order, 0.447 ± 0.024 and 0.338 ± 0.055.
“TTTTTTCAGCAGCATGCTGCTTTTTTTTTTTTTTTGTTAA [AATTG]” came in with a background-corrected fluorescence (dye: Cy3 (3' terminal)) of 0.57 ± 0.032 and a background-corrected fluorescence (dye: Cy5 (3' terminal)) of 0.446 ± 0.027.
As for “TTTTTTCAGCATCAGCAGCATTTTTTTTTTTTTTTGTGTT”, the background-corrected fluorescence runs as follows: (dye: Cy3 (3' terminal)) 0.565 ± 0.028; (dye: Cy5 (3' terminal)) 0.435 ± 0.082.
The like results for “TTTTTTCAGCATCAGCATCATTTTTTTTTTTTTTTGTGTG” were, in that order, 0.604 ± 0.017 and 0.43 ± 0.03.
For “TTTTTTCAGCATCAGCATGATTTTTTTTTTTTTTTGTGTC [CTGTG]” the same measures were 0.4591 ± 0.0035 and 0.356 ± 0.068.
In turn, “TTTTTTCAGCATCAGCATGCTTTTTTTTTTTTTTTGTGTA [ATGTG]” yielded a background-corrected fluorescence (dye: Cy3 (3' terminal)) of 0.595 ± 0.019 and a background-corrected fluorescence (dye: Cy5 (3' terminal)) of 0.434 ± 0.027.
The like results for “TTTTTTCAGCATCATCAGCATTTTTTTTTTTTTTTGTGGT [TGGTG]” were, in that order, 0.659 ± 0.02 and 0.544 ± 0.031.
Take “TTTTTTCAGCATCATCATCATTTTTTTTTTTTTTTGTGGG [GGGTG]”: the background-corrected fluorescence runs as follows: (dye: Cy3 (3' terminal)) 0.717 ± 0.024; (dye: Cy5 (3' terminal)) 0.586 ± 0.041.
“TTTTTTCAGCATCATCATGATTTTTTTTTTTTTTTGTGGC [CGGTG]” registered a background-corrected fluorescence (dye: Cy3 (3' terminal)) of 0.572 ± 0.011 and a background-corrected fluorescence (dye: Cy5 (3' terminal)) of 0.439 ± 0.041.
The like results for “TTTTTTCAGCATCATCATGCTTTTTTTTTTTTTTTGTGGA [AGGTG]” were, in that order, 0.702 ± 0.022 and 0.606 ± 0.037.
The like results for “TTTTTTCAGCATCATGAGCATTTTTTTTTTTTTTTGTGCT [TCGTG]” were, in that order, 0.504 ± 0.024 and 0.414 ± 0.05.
For “TTTTTTCAGCATCATGATCATTTTTTTTTTTTTTTGTGCG [GCGTG]”, the background-corrected fluorescence was found to be 0.568 ± 0.056 (dye: Cy3 (3' terminal)) and 0.499 ± 0.028 (dye: Cy5 (3' terminal)).
For “TTTTTTCAGCATCATGATGATTTTTTTTTTTTTTTGTGCC [CCGTG]” the same measures were 0.438 ± 0.022 and 0.332 ± 0.028.
For “TTTTTTCAGCATCATGATGCTTTTTTTTTTTTTTTGTGCA [ACGTG]”, the background-corrected fluorescence worked out at 0.589 ± 0.02 (dye: Cy3 (3' terminal)) and 0.483 ± 0.028 (dye: Cy5 (3' terminal)).
Turning to “TTTTTTCAGCATCATGCGCATTTTTTTTTTTTTTTGTGAT [TAGTG]”, the background-corrected fluorescence by setting is: (dye: Cy3 (3' terminal)) 0.548 ± 0.032; (dye: Cy5 (3' terminal)) 0.429 ± 0.021.
The like results for “TTTTTTCAGCATCATGCTCATTTTTTTTTTTTTTTGTGAG [GAGTG]” were, in that order, 0.619 ± 0.028 and 0.472 ± 0.057.
With “TTTTTTCAGCATCATGCTGATTTTTTTTTTTTTTTGTGAC [CAGTG]”, the background-corrected fluorescence amounted to 0.483 ± 0.02 (dye: Cy3 (3' terminal)) and 0.387 ± 0.064 (dye: Cy5 (3' terminal)).
The like results for “TTTTTTCAGCATCATGCTGCTTTTTTTTTTTTTTTGTGAA [AAGTG]” were, in that order, 0.607 ± 0.023 and 0.511 ± 0.032.
Turning to “TTTTTTCAGCATGAGCAGCATTTTTTTTTTTTTTTGTCTT [TTCTG]”, the background-corrected fluorescence by setting is: (dye: Cy3 (3' terminal)) 0.505 ± 0.017; (dye: Cy5 (3' terminal)) 0.364 ± 0.03.
For “TTTTTTCAGCATGAGCATCATTTTTTTTTTTTTTTGTCTG”, the background-corrected fluorescence was found to be 0.54 ± 0.031 (dye: Cy3 (3' terminal)) and 0.387 ± 0.025 (dye: Cy5 (3' terminal)).
Regarding “TTTTTTCAGCATGAGCATGATTTTTTTTTTTTTTTGTCTC [CTCTG]”, the background-corrected fluorescence (dye: Cy3 (3' terminal)) stood at 0.393 ± 0.034 and the background-corrected fluorescence (dye: Cy5 (3' terminal)) is 0.33 ± 0.043.
The like results for “TTTTTTCAGCATGAGCATGCTTTTTTTTTTTTTTTGTCTA [ATCTG]” were, in that order, 0.539 ± 0.01 and 0.381 ± 0.021.
For “TTTTTTCAGCATGATCAGCATTTTTTTTTTTTTTTGTCGT [TGCTG]” the same measures were 0.581 ± 0.021 and 0.451 ± 0.032.
For “TTTTTTCAGCATGATCATCATTTTTTTTTTTTTTTGTCGG [GGCTG]” the same measures were 0.666 ± 0.025 and 0.506 ± 0.027.
“TTTTTTCAGCATGATCATGATTTTTTTTTTTTTTTGTCGC [CGCTG]”: the background-corrected fluorescence reads like this: (dye: Cy3 (3' terminal)) 0.556 ± 0.034; (dye: Cy5 (3' terminal)) 0.444 ± 0.032.
The like results for “TTTTTTCAGCATGATCATGCTTTTTTTTTTTTTTTGTCGA [AGCTG]” were, in that order, 0.645 ± 0.017 and 0.548 ± 0.034.
For “TTTTTTCAGCATGATGAGCATTTTTTTTTTTTTTTGTCCT [TCCTG]” the same measures were 0.464 ± 0.02 and 0.346 ± 0.024.
On to “TTTTTTCAGCATGATGATCATTTTTTTTTTTTTTTGTCCG [GCCTG]”, for which the background-corrected fluorescence runs as follows: (dye: Cy3 (3' terminal)) 0.54 ± 0.027; (dye: Cy5 (3' terminal)) 0.429 ± 0.081.
“TTTTTTCAGCATGATGATGATTTTTTTTTTTTTTTGTCCC [CCCTG]” returned a background-corrected fluorescence (dye: Cy3 (3' terminal)) of 0.38 ± 0.023 and a background-corrected fluorescence (dye: Cy5 (3' terminal)) of 0.294 ± 0.019.
With “TTTTTTCAGCATGATGATGCTTTTTTTTTTTTTTTGTCCA [ACCTG]”, the background-corrected fluorescence came to 0.484 ± 0.021 (dye: Cy3 (3' terminal)) and 0.366 ± 0.023 (dye: Cy5 (3' terminal)).
The like results for “TTTTTTCAGCATGATGCGCATTTTTTTTTTTTTTTGTCAT [TACTG]” were, in that order, 0.529 ± 0.025 and 0.39 ± 0.03.
For “TTTTTTCAGCATGATGCTCATTTTTTTTTTTTTTTGTCAG [GACTG]” the same measures were 0.546 ± 0.028 and 0.404 ± 0.051.
